Experimental findings from patent US20240368668A1, “SUBSTRATES AND BIOMARKERS OF ADAMTS7” (The Broad Institute, Inc., priority 2021, published 2024) are described below.

Square brackets hold non-standard residues; d marks the D form. Ends that are not written are not given here.

This assay has as its target T1, mouse ADAMTS7 (Mus musculus, UniProt Q68SA9).
T1 construct: Full-length mouse Adamts7 1-1857 (Uniprot Q68SA9, WT or E373Q catalytic mutant); expressed in transfected cells; host or cells: Human Coronary Artery Smooth Muscle Cells (HCA-SMC, Lonza), adenovirus 50 MOI
T1 sequence (Q68SA9 221-1657): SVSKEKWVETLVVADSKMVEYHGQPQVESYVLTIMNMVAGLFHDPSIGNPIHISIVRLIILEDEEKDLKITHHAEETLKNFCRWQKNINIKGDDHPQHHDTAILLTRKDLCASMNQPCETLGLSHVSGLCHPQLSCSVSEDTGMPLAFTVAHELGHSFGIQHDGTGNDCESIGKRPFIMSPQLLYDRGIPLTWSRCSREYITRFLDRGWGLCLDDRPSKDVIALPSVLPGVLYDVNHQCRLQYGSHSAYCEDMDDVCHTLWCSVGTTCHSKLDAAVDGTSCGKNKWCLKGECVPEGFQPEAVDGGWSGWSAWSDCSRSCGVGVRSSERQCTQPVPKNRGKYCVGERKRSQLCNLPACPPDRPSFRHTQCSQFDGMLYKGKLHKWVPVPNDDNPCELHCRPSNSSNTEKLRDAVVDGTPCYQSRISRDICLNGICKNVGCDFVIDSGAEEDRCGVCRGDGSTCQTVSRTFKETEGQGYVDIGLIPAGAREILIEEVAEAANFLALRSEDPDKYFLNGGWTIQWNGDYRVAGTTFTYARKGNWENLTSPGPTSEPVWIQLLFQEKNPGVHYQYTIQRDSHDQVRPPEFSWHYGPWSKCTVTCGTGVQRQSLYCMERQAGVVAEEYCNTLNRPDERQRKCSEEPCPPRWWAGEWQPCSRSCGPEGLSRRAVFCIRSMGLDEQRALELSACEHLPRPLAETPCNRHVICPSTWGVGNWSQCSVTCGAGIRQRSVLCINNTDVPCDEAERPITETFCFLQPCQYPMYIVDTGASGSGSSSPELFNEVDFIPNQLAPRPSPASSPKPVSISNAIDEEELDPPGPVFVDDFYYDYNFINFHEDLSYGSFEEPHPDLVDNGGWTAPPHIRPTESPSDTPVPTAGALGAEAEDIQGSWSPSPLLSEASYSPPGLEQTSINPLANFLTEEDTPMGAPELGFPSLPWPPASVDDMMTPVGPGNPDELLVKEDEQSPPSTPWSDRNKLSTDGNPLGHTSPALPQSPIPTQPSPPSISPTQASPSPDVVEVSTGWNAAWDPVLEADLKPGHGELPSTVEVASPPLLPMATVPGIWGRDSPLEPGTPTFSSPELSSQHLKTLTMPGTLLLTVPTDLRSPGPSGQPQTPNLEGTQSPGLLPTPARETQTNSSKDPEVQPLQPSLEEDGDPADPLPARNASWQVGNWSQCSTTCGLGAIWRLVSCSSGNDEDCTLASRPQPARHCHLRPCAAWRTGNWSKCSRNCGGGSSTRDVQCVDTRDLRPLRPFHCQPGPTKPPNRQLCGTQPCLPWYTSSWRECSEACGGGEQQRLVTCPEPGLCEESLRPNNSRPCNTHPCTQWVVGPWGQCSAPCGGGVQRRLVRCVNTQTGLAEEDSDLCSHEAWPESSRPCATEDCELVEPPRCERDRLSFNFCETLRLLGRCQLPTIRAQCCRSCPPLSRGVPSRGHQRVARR
Briefly: TMT10 TAILS N-terminomics, SMC1 experiment (Ad-mADAMTS7 WT vs EQ vs Luc, technical replicates, trypsin digest). It is filed as cell-based. To be noted: TAILS neo-N-terminal peptide abundance; log fold change, Ad-mADAMTS7 WT over Luc. Summed up: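 Full-length mouse ADAMTS7 (WT or E373Q mutant, C-terminal 3xFLAG) or luciferase was transduced via adenovirus, 50 MOI, into HCA-SMC (SMC1, SMC2) or HUVEC. SMC1: pooled media, technical triplicates 400 ug; SMC2: process triplicates 300 ug; HUVEC: process triplicates 200 ug, bFGF2 10 ng/ml.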
“HSPG2_3672 (SFLPLPTIKDAYR; listed as Homo sapiens)” had a logFC.mWT.over.Lux of 1.09.
Take “HSPG2_3813 (SSGFIGCVR; listed as Homo sapiens)”: the logFC.mWT.over.Lux came out at 0.81.
In turn, “HSPG2_4004 (SAEPLALGR; listed as Homo sapiens)” came in with a logFC.mWT.over.Lux of 0.88.
For “HSPG2_4021 (LNKDGSLR; listed as Homo sapiens)”, the logFC.mWT.over.Lux came out at 0.70.
The value for “HSPG2_4075 (GCVGEVSVNGKR; listed as Homo sapiens)” was 0.77; that for “HSPG2_4133 (DGFKGDLCEHEENPCQLR; listed as Homo sapiens)” was 0.63.
Turning to “HTRA1_33 (LAAGCPDR; listed as Homo sapiens)”, the logFC.mWT.over.Lux stood at 2.87.
“IFI30_43 (YKTGNLYLR; listed as Homo sapiens)” had a logFC.mWT.over.Lux of 3.19.
Turning to “IGFBP3_31 (SAGLGPVVR; listed as Homo sapiens)”, the logFC.mWT.over.Lux worked out at 2.46.
The value for “IGFBP3_32 (AGLGPVVR; listed as Homo sapiens)” was 4.06; that for “IGFBP3_200 (FSSESKR; listed as Homo sapiens)” was 2.33.
Turning to “IGFBP7_101 (AAGGPGVSGVCVCKSR; listed as Homo sapiens)”, the logFC.mWT.over.Lux is reported as 3.99.
Regarding “LASP1_123 (HEEFEKSR; listed as Homo sapiens)”, the logFC.mWT.over.Lux is 0.87.
As for “LGALS1_53 (HGDANTIVCNSKDGGAWGTEQR; listed as Homo sapiens)”, the figure is 4.83; as for “LGALS3BP_447 (FQAPSDYR; listed as Homo sapiens)”, 4.70; as for “LOXL1_219 (VASAGVIYPYQPR; listed as Homo sapiens)”, 0.99.
As for “LOXL2_37 (FQQPAPEYHQPQAPANVAKIQLR; listed as Homo sapiens)”, the logFC.mWT.over.Lux was 3.37.
Turning to “LOXL2_38 ([code q]QPAPEYHQPQAPANVAKIQLR; not fully specified; listed as Homo sapiens)”, the logFC.mWT.over.Lux is 1.37.
As for “LOXL2_318 (AYKPEQPLVR; listed as Homo sapiens)”, the figure is 0.78.
For the substance “LOX_58 (LSLGSQYQPQR; listed as Homo sapiens)”, the logFC.mWT.over.Lux came to 0.88.
As for “LOX_80 (ANASAQQPR; listed as Homo sapiens)”, the figure is 2.02; as for “LOX_81 (NASAQQPR; listed as Homo sapiens)”, 1.38.
“LOX_123 (HWFQAGYSTSR; listed as Homo sapiens)” showed a logFC.mWT.over.Lux of 1.60.
The value for “LOX_124 (WFQAGYSTSR; listed as Homo sapiens)” was 3.70.
Regarding “LOX_126 (QAGYSTSR; listed as Homo sapiens)”, the logFC.mWT.over.Lux is reported as 1.61.
“LTBP1_393 (LTATNFR; listed as Homo sapiens)” displayed a logFC.mWT.over.Lux of 4.03.
The value for “LTBP1_494 (SVQIHQVSR; listed as Homo sapiens)” was 2.61; that for “LTBP1_540 (HQQVIPHVYPVAAKTQLGR; listed as Homo sapiens)” was 2.83; that for “LTBP1_546 (HVYPVAAKTQLGR; listed as Homo sapiens)” was 3.62.
In turn, “LTBP2_485 (SVQIHQVAQVR; listed as Homo sapiens)” registered a logFC.mWT.over.Lux of 1.80.
“LTBP2_533 (SGEPPRPLPPAAPR; listed as Homo sapiens)” had a logFC.mWT.over.Lux of 1.34.
Take “LTBP2_677 (SLGPGTCTLPLAQR; listed as Homo sapiens)”: the logFC.mWT.over.Lux is 0.90.
For “LTBP2_760 (SSGALPGPAER; listed as Homo sapiens)”, the logFC.mWT.over.Lux is 1.54.
The substance “LTBP2_1023 (GKCTNLEGSFR; listed as Homo sapiens)” had a logFC.mWT.over.Lux of 0.74.
Substance “LTBP2_1371 (SGQKGHAPCSSVLGR; listed as Homo sapiens)” registered a logFC.mWT.over.Lux of 1.24.
The substance “LTBP2_1560 (TTYTECCCQDGEAWSQQCALCPPR; listed as Homo sapiens)” came in with a logFC.mWT.over.Lux of 0.94.
In turn, “LTBP2_1584 (SSEVYAQLCNVAR; listed as Homo sapiens)” displayed a logFC.mWT.over.Lux of 1.40.
